The numbers were not newly measured in article PMC3669279, which cites them from elsewhere.

Data set [1] concerns the target protective antigen (PA) (Bacillus anthracis) (UniProt P13423).
Data set [2] has the same target. The source holds these as a separate data set.

Like-named read-outs stand apart in the source and are kept apart here.

As to edema factor (EF) (from UniProt P40136), the dissociation constant Kd (as a rule, the constant that tells how readily two partners part at equilibrium) in data set [1] was 1 nM.

As for “lethal factor (LF) (from UniProt P15917)”, in data set [2], the Kd is 1 nM.
